Results: patent publication US11760780B2, “Targeting dimerization of BAX to modulate BAX activity” (ALBERT EINSTEIN COLLEGE OF MEDICINE, priority 2014, dated 2023)
Positions of bridges follow the written chain, without caps; N, C: chain ends. Non-standard residues stand in square brackets, D forms with d. S5 = C=CCCC[C@](C)(N)C(=O)O

Experiments:
Format in all cases: biochemical
BAX [1] = molecular target: T1, BAX (Homo sapiens, UniProt Q07812, P168G); experiment: Liposomal permeabilization assay (ANTS/DPX release); conditions: purified BAX P168G dimer, increasing doses, maximum release at 90 min, FIG. 14B
T1 construct: made in house; host or cells: E. coli BL21 (DE3) codon+
Protocol: (§1) Liposomes were composed of the following molar percentages of lipids (Avanti Polar Lipids): phosphatidylcholine, 48%; phosphatidylethanolamine, 28%; phosphatidylinositol, 10%; dioleoyl phosphatidylserine, 10%; and tetraoleoyl cardiolipin, 4% and were loaded with ANTS/DPX (Molecular Probe) upon extrusion. BAX (400 nM) was combined with BIM SAHBA2 at the indicated concentrations in 96-well format (Corning) and then liposomes were added (10 μl from 50 mM total lipid stock) in assay buffer (10 mM HEPES, pH 7, 200 mM KCl, 5 mM MgCl2, and 0.2 mM EDTA) to a final volume of 100 μl. ANTS/DPX release was quantified based on the increase in fluorescence intensity that occurs when the ANTS fluorophore is separated from the DPX quencher upon release from the liposomes into the supernatant. Fluorescence (λex=355 nm and λem=520 nm) was measured over time at 30° C. using a Tecan Infinite M1000 plate reader. The percentage release of ANTS/DPX at 90 min was calculated as percentage release=((F−F0)/(F100−F0))×100, where F0 and F100 are baseline and maximal fluorescence, respectively. 1% Triton treatment is used to determine the maximum amount of liposomal release per assay, and this value sets the 100% value.

BAX [2] = molecular target: T2, BAX (Homo sapiens, UniProt Q07812); experiment: as above
T2 construct: made in house; host or cells: E. coli BL21 (DE3) codon+
Protocol: as §1

BAX 4MA dimer = molecular target: T3, BAX 4MA dimer (Homo sapiens, UniProt Q07812, C126S/C62S/I136C/V121C); experiment: BAX dimer dissociation / oligomerization by size exclusion chromatography; conditions: FIG. 14A
T3 construct: made in house; host or cells: E. coli BL21 (DE3) codon+
Protocol: Superdex 75 10/300 GL and 200 10/300 GL (GE Healthcare) columns were used for size exclusion chromatography of recombinant proteins and cell extracts. Recombinant protein was injected in columns equilibrated with a buffer containing 20 mM HEPES pH 7.2, 150 mM KCl, 1 mM DTT. 1 mg of cytosolic or membrane extracts was applied to a Superdex 200 10/300 GL equilibrated in buffer containing 10 mM Tris, pH 7.5, 1 mM EGTA, 200 mM Sucrose and Complete Protease Inhibitors. Fractions of 500 μl were collected, and 30 μl of each fraction was analyzed by SDS-PAGE and immunoblotting. All operations were run at 4° C. Gel filtration molecular weight markers (GE Healthcare) were also subjected to the columns to obtain a standard curve for the estimation of the molecular weight of the proteins.
BAX wild type and mutants were concentrated to ˜0.5 mM in BAX buffer (10 mM HEPES pH 7, 150 mM KCl, 1 mM DTT) and incubated at 20° C. for 1-3 days before diluting to a total volume of 250 μl and loaded onto a Superdex 75 HR 10/30 size exclusion column (GE Healthcare). These conditions allow a controlled dimerization process than aggregation due to BAX activation. Separation of monomeric and dimeric BAX was achieved using a flow rate of 0.5 ml/min at 4° C. The chromatogram traces show the monomeric and dimeric peaks at ˜11.8 and ˜10.4 ml, respectively. […]

T2 sequence (Q07812 whole entry): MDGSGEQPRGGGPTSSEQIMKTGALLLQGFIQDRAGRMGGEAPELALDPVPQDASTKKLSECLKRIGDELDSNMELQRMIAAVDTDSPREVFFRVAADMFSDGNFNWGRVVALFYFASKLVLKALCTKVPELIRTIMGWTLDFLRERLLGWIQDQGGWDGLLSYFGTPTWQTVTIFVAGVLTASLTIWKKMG
T3 sequence (Q07812 whole entry C62S/V121C/C126S/I136C): as the sequence (Q07812 whole entry) above, with C62S, V121C, C126S, I136C counted along it
T1 sequence (Q07812 whole entry P168G): as the sequence (Q07812 whole entry) above, with P168G counted along it

- activation of BAX P168G dimer compared to BAX WT dimer (BAX [1]): more resistant to activation
- membrane permeabilization by BAX dimer upon addition of activator (BAX [2]; SEC-isolated BAX dimer, liposomes, FIG. 1D): nearly inactive
- doses required to activate BAX WT dimer versus dose that fully activates BAX WT monomer (BAX [2]; purified BAX WT dimer, maximum release at 90 min, FIG. 14B): significantly higher
Substance: N-acetylated^145EIWIAQELRS5IGDS5FNAYYA^164-CONH2 (Ac-EIWIAQELR[S5]IGD[S5]FNAYYA-NH2; staple 10-14; SMILES CC[C@H](C)[C@H](NC(=O)[C@H](Cc1c[nH]c2ccccc12)NC(=O)[C@@H](NC(=O)[C@H](CCC(=O)O)NC(C)=O)[C@@H](C)CC)C(=O)N[C@@H](C)C(=O)N[C@@H](CCC(N)=O)C(=O)N[C@@H](CCC(=O)O)C(=O)N[C@@H](CC(C)C)C(=O)N[C@@H](CCCNC(=N)N)C(=O)N[C@@]1(C)CCCC=CCCC[C@@](C)(C(=O)N[C@@H](Cc2ccccc2)C(=O)N[C@@H](CC(N)=O)C(=O)N[C@@H](C)C(=O)N[C@@H](Cc2ccc(O)cc2)C(=O)N[C@@H](Cc2ccc(O)cc2)C(=O)N[C@@H](C)C(N)=O)NC(=O)[C@H](CC(=O)O)NC(=O)CNC(=O)[C@H]([C@@H](C)CC)NC1=O) [BIM SAHBA2, Hydrocarbon-stapled peptide corresponding to the BH3 domain of BIM]
- membrane permeabilization by BAX monomer upon addition of activator (BAX [2]; SEC-isolated BAX monomer, liposomes, FIG. 1D): activated and induced membrane permeabilization
- activation of BAX 4MA monomer to induce BAX oligomerization (BAX 4MA dimer; in the presence of reducing agent (DTT)): can also activate BAX 4MA monomer to induce BAX oligomerization
- competition and dissociation of BAX 4MA dimer to monomer (BAX 4MA dimer; isolated BAX 4MA dimer, high doses, Superdex 75 SEC): can compete and dissociate the dimer into monomers
